These results are taken from patent US20250027068.

B1: PRT-309 (protein)
chain: MQITSVWTKGVTPLTPEQFRENNEDVIHAPYLAHQGWYDITKAFDGKDNLLCGAATAGNMLHWWFDQNKTEIEAYLSKHPEKQKIIFGNQELFDLKAAIDTKDSQTNSQLFDYFRDKAFPNLSARQLGVMPDLVLDMFINGYYLNVGKTQSTDVNRPYQDKDKRGGIFDAVFTRGDQTTLLTARHDLKNKGLNDISTIIKQELTEGRALALSHTYANVSISHVINLWGADFDAEGNLEAIYVTDSDANASIGMKKYFVGRNAHGHVAISAKKIEGENIGAQVLGLFTLSSGKDQWQKLS
B2: PRT-310 (protein)
chain: MQITSVWTKGVTPLTPEQFRENNEDVIHAPYLAHQGWYDITKAFDGKDNLLCGAATAGNMLHWWFDQNKTEIEAYLSKHPEKQKIIFNNQELFDLKAAIDTKDSQTNSQLFDYFRDKAFPNLSARQLGVMPDLVLDMFINGYYLNVFKTQSTDVNRPYQDKDKRGGIFDAVFTRGDQTTLLTARHDLKNKGLNDISTIIKQELTEGRALALSHTYANVSISHVINLWGADFDAEGNLEAIYVTDSDANASIGMKKYFVGRNAHGHVAISAKKIEGENIGAQVLGLFTLSSGKDQWQKLS
B3: PRT-294 (protein)
chain: MVTSVWTKGVTPPADFTQGEDVFHAPYDANQGWYDITKTFNGKDDLLCGAATAGNMLHWWFDQNKEYIEAYLKKHPEKQKIMFGDQELLDVRKAINTKGSQKNSELFNYFRDKAFPNLSARRLGVMPDLVLDMFINGYYLNVTKTQTTDVNRTYQEKDKRGGIFDAVFTRGDQSKLLTSRHDFKEKGLKEISDLIKQELTEGKALGLSHTYANVRISHVINLWGADFDSDGNLKAIYVTDSDSNASIGMKKYGVGVNSAGKVAISAKEIKEDNIGAQVLGLFTLSTGQDIWNQTN
B4: PRT-302 (protein)
chain: MVTSVWTKGVTPPTDFIKGEDVFHAPYKAGQGWYDITKTFNGKDDLLCGAATAGNMLHWWFDQNKEYIEAYLKKHPEKQKIMFGDQELLDVRKAINTKGSQKNSELFNYFRDKAFPNLSARRLGVMPDLVLDMFINGYYLNVTKTQTTDVNRTYQEKDKRGGIFDAVFTRGDQSKLLTSRHDFKEKGLKEISDLIKQELTEGKALGLSHTYANVRLNHVINLWGADFDSDGNLKAIYVTDSDSNASIGMKKYGVGVNSAGKVAISAKEIKEDNIGAQVLGLFTLSTGQDIWNQTN
B5: PRT-317 (protein)
chain: MTITSVWTKGVTPPTPEDFRENNEDVLHAPYVANQGWYDITKTFDGKDNLLCGAATAGNMLHWWFDQNKEEIERYLKKHPEKQKIIFNNQELFDVKAAIDTKDSQTNSKLFNYFRDKAFPNLSARQLGVMPDLVLDMFINGYYLNLGKTQSTDVNRPYQDKDKRGGIFDAVFTRGDQTTLLTARHDLKNKGLNEISDLIKQELTEGKALALSHTYANVRINHVINLWGADFDAEGNLIAIYVTDSDANASIGMKKYFVGRNANGKVAISAKKIEGDNIGAQVLGLFTLSLGQDIWQKLS
B6: PRT-326 (protein)
chain: MTITSVWTKGVTPPTPEDFRENNEDVLHAPYVANQGWYDITKTFDGKDNLLCGAATAGNMLHWWFDQNKEEIERYLKKHPEKQKIIFGNQELFDVKAAIDTKDSQTNSKLFDYFRDKAFPNLSARQLGVMPDLVLDMFINGYYLNLGKTQSTDVNRPYQDKDKRGGIFDAVFTRGDQTTLLTARHDLKNKGLNEISDLIKQELTEGKALALSHTYANVRINHVINLWGADFDAEGELIAIYVTDSDANPSIGMKKYFVGRNANGKVAISAKKIEGDNIGAQVLGLFTLSTGQDQWQKLS
B7: PRT-325 (protein)
chain: MTITSVWTKGVTPPTPEDFRENNEDVLHAPYVANQGWYDITKTFDGKDNLLCGAATAGNMLHWWFDQNKEEIERYLKKHPEKQKIIFGNQELFDVKAAIDTKDSQTNSKLFDYFRDKAFPNLSARQLGVMPDLVLDMFINGYYLNLGKTQSTDVNRPYQDKDKRGGIFDAVFTRGDQTTLLTARHDLKNKGLNEISDLIKQELTEGKALALSHTYANVRINHVINLWGADFDAEGELIAIYVTDSDANPSIGMKKYFVGRNANGKVAISAKKIEGDNIGAQVLGLFTLSTGQDIWQKLS
B8: PRT-333 (protein)
chain: MTITSVWTKGVTPPTPEDFRENNEDVLHAPYVANQGWYDITKTFDGKDNLLCGAATAGNMLHWWFDQNKEEIERYLKKHPEKQKIIFGNQELFDVKAAIDTKDSQTNSKLFNYFRDKAFPGLSARQLGVFPDLVLDMFINGYYLNLGKTQSTDVNRPYQDKDKRGGIFDAVFTRGVQTTLLTARHDLKNKGLNEISDLIKQELTEGKALALSHTYANVRINHVINLWGADFDAEGNLIAIYVTDSDANPSIGMKKYFVGRNANGKVAISAKKIEGDNIGAQVLGLFTLSTGQDIWQKLS
B9: PRT-318 (protein)
chain: MTITSVWTKGVTPPTPEDFRYNNEDVLHAPYVANQGWYDITKTFDGKDNLLCGAATAGNMLHWWFDQNKEEIERYLKKHPEKQKIIFNNQEWFDVKAAIDTKDSQTNSKLFDYFRDKAFPNLSARQLGVMPDLVLDMFINGYYLNLGKTQSTDVNRPYQDKDKRGGIFDAVFTRGDQTTLLTARHDLKNKGLNEISDLIKQELTEGKALALSHTYANVRINHVINLWGADFDAEGNLIAIYVTDSDANASIGMKKYFVGVNANGKVAISAKKIEGDNIGAQVLGLFTLSLGQDIWQKLS

The target in the data set is pooled human IgG (human IgG1,2,3 and 4).
B1 came in with an Enzyme Activity Endpoint Assay: Fab′2 of 0 ng/µL, an Enzyme Activity Endpoint Assay: Fc of 0 ng/µL, an Enzyme Activity Endpoint Assay: IgG of 1650 ng/µL and an Enzyme Activity Endpoint Assay: scIgG of 0 ng/µL.

B2 showed an Enzyme Activity Endpoint Assay (purified): Fab'2 of 1220 ng/µL, an Enzyme Activity Endpoint Assay (purified): Fc of 488 ng/µL, an Enzyme Activity Endpoint Assay (purified): IgG of 0 ng/µL and an Enzyme Activity Endpoint Assay (purified): scIgG of 0 ng/µL.

B3 returned an Enzyme Activity Endpoint Assay (purified): Fab'2 of 651 ng/µL, an Enzyme Activity Endpoint Assay (purified): Fc of 456 ng/µL, an Enzyme Activity Endpoint Assay (purified): IgG of 506 ng/µL and an Enzyme Activity Endpoint Assay (purified): scIgG of 5 ng/µL.

Protein B4 registered an Enzyme Activity Endpoint Assay (purified): Fab'2 of 1130 ng/µL, an Enzyme Activity Endpoint Assay (purified): Fc of 461 ng/µL, an Enzyme Activity Endpoint Assay (purified): IgG of 0 ng/µL and an Enzyme Activity Endpoint Assay (purified): scIgG of 0 ng/µL.

For B5, the Enzyme Activity Endpoint Assay: Fab′2 worked out at 798 ng/µL, the Enzyme Activity Endpoint Assay: Fc was 453 ng/µL, the Enzyme Activity Endpoint Assay: IgG turned out to be 0 ng/µL and the Enzyme Activity Endpoint Assay: scIgG was 0 ng/µL.

Consider B6, for which the Enzyme Activity Endpoint Assay (purified): Fab'2 was 588 ng/µL, the Enzyme Activity Endpoint Assay (purified): Fc is 429 ng/µL, the Enzyme Activity Endpoint Assay (purified): IgG came out at 458 ng/µL and the Enzyme Activity Endpoint Assay (purified): scIgG was determined as 0 ng/µL.

As for B7, the Enzyme Activity Endpoint Assay (purified): Fab'2 is 930 ng/µL, the Enzyme Activity Endpoint Assay (purified): Fc stood at 466 ng/µL, the Enzyme Activity Endpoint Assay (purified): IgG was 78 ng/µL and the Enzyme Activity Endpoint Assay (purified): scIgG came out at 0 ng/µL.

The protein B8 had an Enzyme Activity Endpoint Assay (purified): Fab'2 of 794 ng/µL, an Enzyme Activity Endpoint Assay (purified): Fc of 448 ng/µL, an Enzyme Activity Endpoint Assay (purified): IgG of 0 ng/µL and an Enzyme Activity Endpoint Assay (purified): scIgG of 0 ng/µL.

Take B9: the Enzyme Activity Endpoint Assay (purified): Fab'2 was determined as 641 ng/µL, the Enzyme Activity Endpoint Assay (purified): Fc turned out to be 365 ng/µL, the Enzyme Activity Endpoint Assay (purified): IgG turned out to be 110 ng/µL and the Enzyme Activity Endpoint Assay (purified): scIgG is 100 ng/µL.
